The supplement of paper PMC11316812
± gives the standard deviation of the averaged measurements.

Columns and labels:
MCF7 = assay: percentage of EdU-negative (G0-arrested) nuclei per well, 72 h; higher = more G0 arrest; details: reference: sequence is the full UniProt precursor, the tested protein was the secreted form or ectodomain
hTERT-HMEC = assay: as above; details: reference: sequence is the full UniProt precursor, the tested protein was the secreted form or ectodomain
[1] = protein concentration 0.03125 µM
[2] = protein concentration 0.3125 µM
[3] = protein concentration 0.0293325 µM
[4] = protein concentration 0.293325 µM
[5] = protein concentration 0.0357143 µM
[6] = protein concentration 0.357143 µM
[7] = protein concentration 0.0225 µM
[8] = protein concentration 0.02225 µM
[9] = protein concentration 0.2225 µM
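Note: secreted proteins added to cultured cells, EdU pulse at the end, nuclei found by Hoechst imaging, EdU status from nuclear versus surrounding ring intensity ratio, PBS as neutral control.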

Sequence of Q9BZP6 (chain, as listed by the source): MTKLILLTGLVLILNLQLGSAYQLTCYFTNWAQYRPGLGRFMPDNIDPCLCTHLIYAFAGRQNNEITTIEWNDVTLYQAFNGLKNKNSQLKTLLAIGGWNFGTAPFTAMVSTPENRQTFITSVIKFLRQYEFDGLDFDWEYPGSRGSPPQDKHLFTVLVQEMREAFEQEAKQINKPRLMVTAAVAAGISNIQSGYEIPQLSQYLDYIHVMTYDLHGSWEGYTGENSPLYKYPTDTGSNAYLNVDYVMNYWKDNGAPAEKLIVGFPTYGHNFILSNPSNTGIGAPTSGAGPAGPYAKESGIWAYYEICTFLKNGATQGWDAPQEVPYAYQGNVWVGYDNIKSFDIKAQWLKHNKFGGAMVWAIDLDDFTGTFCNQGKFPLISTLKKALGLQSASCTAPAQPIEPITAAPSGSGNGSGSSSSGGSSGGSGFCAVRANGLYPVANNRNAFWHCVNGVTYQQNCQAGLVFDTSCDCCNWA

MAPGSRTSLLLAFALLCLPWLQEAGAVQTVPLSRLFDHAMLQAHRAHQLAIDTYQEFEETYIPKDQKYSFLHDSQTSFCFSDSIPTPSNMEETQQKSNLELLRISLLLIESWLEPVRFLRSMFANNLVYDTSDSDDYHLLKDLEEGIQTLMGRLEDGSRRTGQILKQTYSKFDTNSHNHDALLKNYGLLYCFRKDMDKVETFLRMVQCRSVEGSCGF [P0DML2]
percentage of EdU-negative (MCF7; [1]): 28.31 ± 0.052% | percentage of EdU-negative (MCF7; [2]): 25.8 ± 0.31% | percentage of EdU-negative (hTERT-HMEC; [1]): 5.53 ± 0.26% | percentage of EdU-negative (hTERT-HMEC; [2]): 6.34 ± 1.3%

MPVMRLFPCFLQLLAGLALPAVPPQQWALSAGNGSSEVEVVPFQEVWGRSYCRALERLVDVVSEYPSEVEHMFSPSCVSLLRCTGCCGDENLHCVPVETANVTMQLLKIRSGDRPSYVELTFSQHVRCECRHSPGRQSPDMPGDFRADAPSFLPPRRSLPMLFRMEWGCALTGSQSAVWPSSPVPEEIPRMHPGRNGKKQQRKPLREKMKPERCGDAVPRR
percentage of EdU-negative (MCF7; [3]): 24.4 ± 0.58% | percentage of EdU-negative (MCF7; [4]): 25.4 ± 0.6% | percentage of EdU-negative (hTERT-HMEC; [3]): 4.772 ± 0.0079% | percentage of EdU-negative (hTERT-HMEC; [4]): 5.02 ± 0.86%

MPRRGYSKPGSWGSFWAMLTLVGLVTHAAQRADVGGEAAGTSINHSQAVLQRLQELLRQGNASDVVLRVQAAGTDEVRVFHAHRLLLGLHSELFLELLSNQSEAVLQEPQDCAAVFDKFIRYLYCGELTVLLTQAIPLHRLATKYGVSSLQRGVADYMRAHLAGGAGPAVGWYHYAVGTGDEALRESCLQFLAWNLSAVAASTEWGAVSPELLWQLLQRSDLVLQDELELFHALEAWLGRARPPPAVAERALRAIRYPMIPPAQLFQLQARSAALARHGPAVADLLLQAYQFHAASPLHYAKFFDVNGSAFLPRNYLAPAWGAPWVINNPARDDRSTSFQTQLGPSGHDAGRRVTWNVLFSPRWLPVSLRPVYADAAGTALPAARPEDGRPRLVVTPASSGGDAAGVSFQKTVLVGARQQGRLLVRHAYSFHQSSEEAGDFLAHADLQRRNSEYLVENALHLHLIVKPVYHTLIRTPK [A6NE02]
percentage of EdU-negative (MCF7; protein concentration 0.006 µM): 26.7 ± 0.63% | percentage of EdU-negative (MCF7; protein concentration 0.06 µM): 26.1 ± 1.3% | percentage of EdU-negative (hTERT-HMEC; protein concentration 0.006 µM): 5.11 ± 0.82% | percentage of EdU-negative (hTERT-HMEC; protein concentration 0.06 µM): 10 ± 0.96%

Q9BZP6
percentage of EdU-negative (MCF7; [5]): 23.1 ± 1.2% | percentage of EdU-negative (MCF7; [6]): 27.6 ± 0.63% | percentage of EdU-negative (hTERT-HMEC; [5]): 5.02 ± 0.9% | percentage of EdU-negative (hTERT-HMEC; [6]): 6.66 ± 0.26%

MGFNLTFHLSYKFRLLLLLTLCLTVVGWATSNYFVGAIQEIPKAKEFMANFHKTLILGKGKTLTNEASTKKVELDNCPSVSPYLRGQSKLIFKPDLTLEEVQAENPKVSRGRYRPQECKALQRVAILVPHRNREKHLMYLLEHLHPFLQRQQLDYGIYVIHQAEGKKFNRAKLLNVGYLEALKEENWDCFIFHDVDLVPENDFNLYKCEEHPKHLVVGRNSTGYRLRYSGYFGGVTALSREQFFKVNGFSNNYWGWGGEDDDLRLRVELQRMKISRPLPEVGKYTMVFHTRDKGNEVNAERMKLLHQVSRVWRTDGLSSCSYKLVSVEHNPLYINITVDFWFGA
percentage of EdU-negative (MCF7; [7]): 25.1 ± 1.2% | percentage of EdU-negative (MCF7; protein concentration 0.225 µM): 27.9 ± 0.9% | percentage of EdU-negative (hTERT-HMEC; [7]): 5.14 ± 0.69% | percentage of EdU-negative (hTERT-HMEC; protein concentration 0.225 µM): 6.72 ± 0.53%

MAAAAATKILLCLPLLLLLSGWSRAGRADPHSLCYDITVIPKFRPGPRWCAVQGQVDEKTFLHYDCGNKTVTPVSPLGKKLNVTTAWKAQNPVLREVVDILTEQLRDIQLENYTPKEPLTLQARMSCEQKAEGHSSGSWQFSFDGQIFLLFDSEKRMWTTVHPGARKMKEKWENDKVVAMSFHYFSMGDCIGWLEDFLMGMDSTLEPSAGAPLAMSSGTTQLRATATTLILCCLLIILPCFILPGI [Q9BZM5]
percentage of EdU-negative (MCF7; [5]): 22.2 ± 0.6% | percentage of EdU-negative (MCF7; [6]): 25.5 ± 0.78% | percentage of EdU-negative (hTERT-HMEC; [5]): 4.46 ± 0.35% | percentage of EdU-negative (hTERT-HMEC; [6]): 5.89 ± 0.34%

MRNWLVLLCPCVLGAALHLWLRLRSPPPACASGAGPADQLALFPQWKSTHYDVVVGVLSARNNHELRNVIRSTWMRHLLQHPTLSQRVLVKFIIGAHGCEVPVEDREDPYSCKLLNITNPVLNQEIEAFSLSEDTSSGLPEDRVVSVSFRVLYPIVITSLGVFYDANDVGFQRNITVKLYQAEQEEALFIARFSPPSCGVQVNKLWYKPVEQFILPESFEGTIVWESQDLHGLVSRNLHKVTVNDGGGVLRVITAGEGALPHEFLEGVEGVAGGFIYTIQEGDALLHNLHSRPQRLIDHIRNLHEEDALLKEESSIYDDIVFVDVVDTYRNVPAKLLNFYRWTVETTSFNLLLKTDDDCYIDLEAVFNRIVQKNLDGPNFWWGNFRLNWAVDRTGKWQELEYPSPAYPAFACGSGYVISKDIVKWLASNSGRLKTYQGEDVSMGIWMAAIGPKRYQDSLWLCEKTCETGMLSSPQYSPWELTELWKLKERCGDPCRCQAR [Q8NCR0]
percentage of EdU-negative (MCF7; [8]): 25.7 ± 4.8% | percentage of EdU-negative (MCF7; [9]): 29.39 ± 0.067% | percentage of EdU-negative (hTERT-HMEC; [8]): 5.56 ± 0.58% | percentage of EdU-negative (hTERT-HMEC; [9]): 11 ± 1%
